Experimental data taken from patent US20210269519A1 (University of Texas, published 2021).

T1: FLAG-tagged β-catenin
T1 chain: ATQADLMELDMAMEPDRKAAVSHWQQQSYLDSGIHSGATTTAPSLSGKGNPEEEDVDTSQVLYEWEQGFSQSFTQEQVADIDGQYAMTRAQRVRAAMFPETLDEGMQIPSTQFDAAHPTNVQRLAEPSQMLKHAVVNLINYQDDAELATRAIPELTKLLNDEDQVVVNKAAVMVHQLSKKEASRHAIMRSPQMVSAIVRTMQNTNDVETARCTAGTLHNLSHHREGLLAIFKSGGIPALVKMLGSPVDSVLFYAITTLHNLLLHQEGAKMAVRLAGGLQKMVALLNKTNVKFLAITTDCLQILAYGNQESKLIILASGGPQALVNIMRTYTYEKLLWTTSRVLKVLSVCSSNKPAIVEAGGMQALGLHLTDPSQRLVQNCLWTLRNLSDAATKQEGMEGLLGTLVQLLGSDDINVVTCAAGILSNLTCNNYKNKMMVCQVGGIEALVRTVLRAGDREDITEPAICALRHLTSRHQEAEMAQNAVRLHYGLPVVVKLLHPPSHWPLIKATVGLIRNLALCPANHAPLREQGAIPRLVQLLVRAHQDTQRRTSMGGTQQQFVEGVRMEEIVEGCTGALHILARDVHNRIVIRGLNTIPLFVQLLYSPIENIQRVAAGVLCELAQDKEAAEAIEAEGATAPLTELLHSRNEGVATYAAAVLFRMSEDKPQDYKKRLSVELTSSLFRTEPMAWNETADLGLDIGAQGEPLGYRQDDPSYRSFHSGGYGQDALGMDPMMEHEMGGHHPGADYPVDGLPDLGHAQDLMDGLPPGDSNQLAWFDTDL

T2: Flag tagged-human Lmbr1l (limb region 1 like, LMBR1L) (human, UniProt Q6UX01 1-489)
T2 construct: It carries a Flag tag; also called h-LMBR1L; LIMR
T2 sequence: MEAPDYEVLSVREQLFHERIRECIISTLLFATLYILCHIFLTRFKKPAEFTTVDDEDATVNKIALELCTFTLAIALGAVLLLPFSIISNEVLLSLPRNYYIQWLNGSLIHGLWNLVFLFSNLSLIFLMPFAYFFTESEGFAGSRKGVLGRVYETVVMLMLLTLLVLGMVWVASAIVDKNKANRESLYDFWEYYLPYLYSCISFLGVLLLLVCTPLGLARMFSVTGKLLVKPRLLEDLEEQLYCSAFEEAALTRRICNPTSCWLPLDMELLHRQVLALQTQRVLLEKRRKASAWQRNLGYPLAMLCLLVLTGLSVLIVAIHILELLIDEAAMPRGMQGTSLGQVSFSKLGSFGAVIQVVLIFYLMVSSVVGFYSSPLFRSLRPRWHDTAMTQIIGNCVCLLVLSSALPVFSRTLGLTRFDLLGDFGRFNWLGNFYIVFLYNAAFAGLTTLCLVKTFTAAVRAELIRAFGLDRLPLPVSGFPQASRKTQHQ


Target: T1, FLAG-tagged β-catenin
Assay: not given

Row | Molecule | ubiquitination of β-catenin (anti-FLAG IP, anti-ubiquitin immunoblot)
1 | glycoprotein 78 (GP78; known as AMFR) (enzyme, UniProt Q9UKV5 1-643, looked up, Identified by LC-MS/MS in the LMBR1L co-IP; also called AMFR (GP78)) MPLLFLERFPWPSLRTYTGLSGLALLGTIISAYRALSQPEAGPGEPDQLTASLQPEPPAPARPSAGGPRARDVAQYLLSDSLFVWVLVNTACCVLMLVAKLIQCIVFGPLRVSERQHLKDKFWNFIFYKFIFIFGVLNVQTVEEVVMWCLWFAGLVFLHLMVQLCKDRFEYLSFSPTTPMSSHGRVLSLLVAMLLSCCGLAAVCSITGYTHGMHTLAFMAAESLLVTVRTAHVILRYVIHLWDLNHEGTWEGKGTYVYYTDFVMELTLLSLDLMHHIHMLLFGNIWLSMASLVIFMQLRYLFHEVQRRIRRHKNYLRVVGNMEARFAVATPEELAVNNDDCAICWDSMQAARKLPCGHLFHNSCLRSWLEQDTSCPTCRMSLNIADNNRVREEHQGENLDENLVPVAAAEGRPRLNQHNHFFHFDGSRIASWLPSFSVEVMHTTNILGITQASNSQLNAMAHQIQEMFPQVPYHLVLQDLQLTRSVEITTDNILEGRIQVPFPTQRSDSIRPALNSPVERPSSDQEEGETSAQTERVPLDLSPRLEETLDFGEVEVEPSEVEDFEARGSRFSKSADERQRMLVQRKDELLQQARKRFLNKSSEDDAASESFLPSEGASSDPVTLRRRMLAAAAERRLQKQQTS | Co-expression of FLAG-tagged β-catenin and HA-tagged GP78 strongly promoted the ubiquitination of β-catenin

These molecules were tested against Flag tagged-human Lmbr1l (limb region 1 like, LMBR1L) (human) (UniProt Q6UX01) (assay: anti-FLAG co-IP from HEK293T lysate + LC-MS/MS, vs empty vector).

Row | Molecule | Ratio h-LMBR1L/h-vector
2 | AAAS (from UniProt F8VZ44 1-422) | 81.9
3 | CKAP4 (from UniProt Q07065 1-602) | 79.5
4 | EIF4G1 (from UniProt E7EUU4 1-1560) | 58.1
5 | GANAB (from UniProt Q14697 29-944) (enzyme) | 198
6 | GAPVD1 (from UniProt Q14C86 1-1478) | 110
7 | IMMT | 100
8 | RPN1 (from UniProt P04843 24-607) | 118
9 | SRP68 (from UniProt Q9UHB9 1-627) | 198
10 | STT3A (from UniProt P46977 1-705) (enzyme) | 65.6
11 | TMEM33 (from UniProt P57088 2-247) | 87
12 | TMEM209 (from UniProt Q96SK2 1-561) | 97.8

Now from value to molecule:

Row | Ratio h-LMBR1L/h-vector | Molecule
13 | 110 | COPA (from UniProt P53621 1-1224)
14 | 87.6 | FKBP8 (from UniProt Q14318 1-413)
15 | 106 | IARS (from UniProt J3KR24 1-1121) (enzyme)
16 | 58.1 | MAGED1 (from UniProt Q9Y5V3 1-778)
17 | 169 | NCAPD2 (from UniProt Q15021 1-1401)
18 | 107 | NDUFA2 (from UniProt O43678 2-99)
19 | 67.3 | PDCD6IP (from UniProt Q8WUM4 2-868)
20 | 87.6 | PTPLAD1
21 | 231 | SRPRB (from UniProt Q9Y5M8 1-271)
22 | 51.6 | USP9X (from UniProt Q93008 1-2554) (enzyme)

The molecules below were run against T2, Flag tagged-human Lmbr1l (limb region 1 …) in the same assay as above.
Description: We sought to understand the immune function of LMBRL1 by identifying LMBR1L-interacting proteins using co-immunoprecipitation (co-IP) combined with mass spectrometry (MS) analysis. Among the 1,623 candidate proteins identified as putative LMBR1L interactors (Dataset S1), 25 proteins were >50-fold more abundant in the LMBR1L co-IP product relative to empty vector control (Table 1).
Co-immunoprecipitation and mass spectrometry were performed to identify Lmbr1l-interacting proteins as described below. Transfection was performed in HEK293T cells (ATCC) using Lipofectamine 2000 reagent (Life technologies) with plasmid encoding Flag tagged-human Lmbr1l or empty vector control. Forty-eight hours after transfection, cells were harvested in NP-40 lysis buffer for 45 min at 4° C. […] The proteins were eluted with SDS sample buffer and heated at 95° C. for 10 min. Lysates were loaded onto 12% (wt/vol) SDS-PAGE gel and run 1 cm into the separation gel. The gel was stained with Coomassie blue (Thermo Fisher) and whole stained lanes were subjected to mass spectrometry analysis (LCMS/MS) as described previously (33).

Row | Ratio h-LMBR1L/h-vector [ratio] | Molecule
23 | 71.2 | UBX domain-containing protein 8 (UBXD8, known as FAF2) (other, UniProt Q96CS3 2-445, looked up, Identified by LC-MS/MS in the LMBR1L co-IP; also called FAF2 (UBXDB8)) AAPEERDLTQEQTEKLLQFQDLTGIESMDQCRHTLEQHNWNIEAAVQDRLNEQEGVPSVFNPPPSRPLQVNTADHRIYSYVVSRPQPRGLLGWGYYLIMLPFRFTYYTILDIFRFALRFIRPDPRSRVTDPVGDIVSFMHSFEEKYGRAHPVFYQGTYSQALNDAKRELRFLLVYLHGDDHQDSDEFCRNTLCAPEVISLINTRMLFWACSTNKPEGYRVSQALRENTYPFLAMIMLKDRRMTVVGRLEGLIQPDDLINQLTFIMDANQTYLVSERLEREERNQTQVLRQQQDEAYLASLRADQEKERKKREERERKRRKEEEVQQQKLAEERRRQNLQEEKERKLECLPPEPSPDDPESVKIIFKLPNDSRVERRFHFSQSLTVIHDFLFSLKESPEKFQIEANFPRRVLPCIPSEEWPNPPTLQEAGLSHTEVLFVQDLTDE
24 | 297 | ubiquitin associated domain containing 2 (UBAC2) (other, UniProt Q8NBM4 36-344, looked up, Identified by LC-MS/MS in the LMBR1L co-IP) HCQKLFVYDLHAVKNDFQIWRLICGRIICLDLKDTFCSSLLIYNFRIFERRYGSRKFASFLLGSWVLSALFDFLLIEAMQYFFGITAASNLPSGFLAPVFALFVPFYCSIPRVQVAQILGPLSITNKTLIYILGLQLFTSGSYIWIVAISGLMSGLCYDSKMFQVHQVLCIPSWMAKFFSWTLEPIFSSSEPTSEARIGMGATLDIQRQQRMELLDRQLMFSQFAQGRRQRQQQGGMINWNRLFPPLRQRQNVNYQGGRQSEPAAPPLEVSEEQVARLMEMGFSRGDALEALRASNNDLNVATNFLLQH
25 | 51.7 | glycoprotein 78 (GP78; known as AMFR) (enzyme, UniProt Q9UKV5 1-643, looked up, Identified by LC-MS/MS in the LMBR1L co-IP; also called AMFR (GP78)) MPLLFLERFPWPSLRTYTGLSGLALLGTIISAYRALSQPEAGPGEPDQLTASLQPEPPAPARPSAGGPRARDVAQYLLSDSLFVWVLVNTACCVLMLVAKLIQCIVFGPLRVSERQHLKDKFWNFIFYKFIFIFGVLNVQTVEEVVMWCLWFAGLVFLHLMVQLCKDRFEYLSFSPTTPMSSHGRVLSLLVAMLLSCCGLAAVCSITGYTHGMHTLAFMAAESLLVTVRTAHVILRYVIHLWDLNHEGTWEGKGTYVYYTDFVMELTLLSLDLMHHIHMLLFGNIWLSMASLVIFMQLRYLFHEVQRRIRRHKNYLRVVGNMEARFAVATPEELAVNNDDCAICWDSMQAARKLPCGHLFHNSCLRSWLEQDTSCPTCRMSLNIADNNRVREEHQGENLDENLVPVAAAEGRPRLNQHNHFFHFDGSRIASWLPSFSVEVMHTTNILGITQASNSQLNAMAHQIQEMFPQVPYHLVLQDLQLTRSVEITTDNILEGRIQVPFPTQRSDSIRPALNSPVERPSSDQEEGETSAQTERVPLDLSPRLEETLDFGEVEVEPSEVEDFEARGSRFSKSADERQRMLVQRKDELLQQARKRFLNKSSEDDAASESFLPSEGASSDPVTLRRRMLAAAAERRLQKQQTS
